To fix the notation:
B1: Pistol ribozyme (parent)
chain: GGGUCGUUGUUCCAUAAUCGCGUGGAUAUGGCACGCAAGUUUCUACCGGGCACCGUAAAUGUCCGACUGGAGCCGUUCGGGCGGCUAUAAACAGACCUCAGGCCCGAAGCGUGGCGGCACCUGCCGCCGGUGGUAAAAAAGAUCGGAAGAGCACACGUCU

Data on 84 variants can be found in the RNAGym collection of RNA variant scans (doi:10.1021/acssynbio.7b00057).

The variants in this data set derive from B1. Briefly: aptazyme ON/OFF ratio, guanine; higher = stronger switching; co-transcriptional cleavage with and without guanine.
Regarding U7A G9C U10G U11G C12G, the “aptazyme ON/OFF ratio” value stood at 1.16.

For the variant U7A U8A G9C U11C C12U C13G, the “aptazyme ON/OFF ratio” value stood at 1.11.

For U7A U8G G9C U10A C12U, the “aptazyme ON/OFF ratio” value came out at 1.36. Turning to U7A U8C G9C U10A U11C C12G, the “aptazyme ON/OFF ratio” value came to 1.26. Turning to U7G U8C U11C C13U, the “aptazyme ON/OFF ratio” value is 1.32. For the variant U8C G9U U11A C13A, the “aptazyme ON/OFF ratio” value was 1.27. Turning to U7C U8A G9U U10A C12G C13A, the “aptazyme ON/OFF ratio” value is 1.12.

U7C U8C G9A U10C U11G C12U C13G: the “aptazyme ON/OFF ratio” value was 1.33. Take U7A U10G C12A: the “aptazyme ON/OFF ratio” value was 1.16.

For the variant U7G U8G G9U U11G C13G, the “aptazyme ON/OFF ratio” value was 1.19. Then U8A G9C U10C U11G C12G C13U, with 1.09; and U7C U8C G9U U10A C13A, with 1.14. The result for U7A U10G U11A C12U C13G reads 1.13. U7A U8G G9U U10G C13G: the “aptazyme ON/OFF ratio” value was found to be 1.32.

As for G9U U10A U11C C13U, the “aptazyme ON/OFF ratio” value was 1.17. As to U7G U11G C13G, the “aptazyme ON/OFF ratio” value came out at 1.08. The result for U7G U8G U11C C12G reads 1.15.

For the variant G9C U10C U11C C12A, the “aptazyme ON/OFF ratio” value was 1.04. Then G9C U10C U11C C12G, with 1.04; and U8C U10A U11C C12G C13A, with 1.16. Take U8C G9C U10A U11C C12A: the “aptazyme ON/OFF ratio” value came to 1.24.

For the variant U7A U8G G9A U11A C13G, the “aptazyme ON/OFF ratio” value turned out to be 1.21. Consider U7G G9C U10A U11C C12U, for which the “aptazyme ON/OFF ratio” value was determined as 1.46. As for U7A U8A G9U U10G C12G C13A, the “aptazyme ON/OFF ratio” value stood at 1.21.

As for U7C U8G G9C U10C C13G, the “aptazyme ON/OFF ratio” value turned out to be 1.08. The result for U7C U8C G9C U10C U11C C12A C13U reads 1.02; that for U7A U8C G9C, 1.08. As for U7G U8G G9U U10A U11A, the “aptazyme ON/OFF ratio” value was 2.87.

Take U10C U11A C12G C13A: the “aptazyme ON/OFF ratio” value amounted to 1.29.

Regarding U7C G9A U11C C12U C13A, the “aptazyme ON/OFF ratio” value is 1.17. The result for U7A G9U U11G C12A C13A reads 1.18.

Turning to G9C U10C U11A C12G C13U, the “aptazyme ON/OFF ratio” value turned out to be 1.22.

In the case of U7C U8C G9C U11G, the “aptazyme ON/OFF ratio” value came to 1.24. On to U7C G9C U10C U11A C12U C13G, for which the “aptazyme ON/OFF ratio” value is 1.07.

For the variant U7G U8G G9C U10G U11A C12A C13G, the “aptazyme ON/OFF ratio” value came out at 1.12.

U7A G9C U10A U11C C13G: the “aptazyme ON/OFF ratio” value came to 1.06. Regarding U8A G9U U11G C13U, the “aptazyme ON/OFF ratio” value turned out to be 1.24.

As to U7G U8A U10A U11C, the “aptazyme ON/OFF ratio” value turned out to be 0.988. Consider U7G G9C U10C C12A C13G, for which the “aptazyme ON/OFF ratio” value was found to be 1.16. Then U7C U8C G9U U10C U11A C12G, with 1.34; and U8A G9C C12A C13A, with 1.24; and U8C U10A C12A, with 1.29. For U8C U10A C12A C13G, the “aptazyme ON/OFF ratio” value came to 1.1. As for U7C U8G U10A U11A C12G C13G, the “aptazyme ON/OFF ratio” value was determined as 1.13. As for U7G U8G U10C U11G C12A C13G, the “aptazyme ON/OFF ratio” value turned out to be 1.16.

Take U7A U8C G9C U10G U11G C12A C13G: the “aptazyme ON/OFF ratio” value worked out at 1.07. Regarding G9A U10A U11A C13A, the “aptazyme ON/OFF ratio” value stood at 1.11. The result for U7C U8C G9U C12G C13A reads 1.21; that for U7G U8A G9U U11A C12A C13A, 1.16; that for U7C G9C U10A C13A, 1.04.

For the variant U8A U11C, the “aptazyme ON/OFF ratio” value amounted to 1.12. Turning to U7A G9U U10C U11A, the “aptazyme ON/OFF ratio” value was determined as 1.31. Then U7A U8A U11C C12U, with 1.48; and U8C G9C U10G C12U C13U, with 1.28. With U7A U8G U10G U11C C12U C13U, the “aptazyme ON/OFF ratio” value is 1.41.

Regarding U7G U8G G9C U10A U11G C12A, the “aptazyme ON/OFF ratio” value stood at 1.05. U7G U8A G9A U10A C12G C13U: the “aptazyme ON/OFF ratio” value came to 1.1. The result for U7A U10C U11C C12U C13G reads 1.08; that for U7C G9U U10A C12U C13U, 1.22; that for U8C G9A U11G C12U, 1.29. Then U8C G9U U10G C12G C13G, with 1.21. As to U8A G9U U10A U11C C12G, the “aptazyme ON/OFF ratio” value was 1.09. Regarding U7A U8A G9U U10G U11C C12A C13U, the “aptazyme ON/OFF ratio” value stood at 1.21. On to U8C G9A U10C U11G C12A C13A, for which the “aptazyme ON/OFF ratio” value was found to be 1.44. As for U7A U8C G9U U10A C12A C13G, the “aptazyme ON/OFF ratio” value was 1.15. Then U7A U8G U11G C12U C13U, with 1.22; and U7G G9U U11A C13G, with 1.13. For the variant U7C G9C U10C U11G C12U C13U, the “aptazyme ON/OFF ratio” value amounted to 1.09. U7G U8A G9U U11C C12U C13A: the “aptazyme ON/OFF ratio” value came to 1.1.

Turning to U7A G9C U10C U11G C12A C13U, the “aptazyme ON/OFF ratio” value is 1.02.

Consider U7A U8A G9C U10A U11C C12U C13G, for which the “aptazyme ON/OFF ratio” value was found to be 1.19. Turning to U7C U8A G9C, the “aptazyme ON/OFF ratio” value was determined as 1.04. Then U8A G9U U10G U11A C12U C13G, with 1.16. Consider U8C U10G U11A C13G, for which the “aptazyme ON/OFF ratio” value was 1.19.

Turning to U7A U8G C12U C13A, the “aptazyme ON/OFF ratio” value stood at 1.23. On to U7G U8A G9C U10A U11G C12U C13U, for which the “aptazyme ON/OFF ratio” value was found to be 1.04. With U7C G9U U10G C12G C13G, the “aptazyme ON/OFF ratio” value was 1.12.

Take U7C G9A U10A C12A C13U: the “aptazyme ON/OFF ratio” value is 1.05.

U7C U8G U10C U11G C12A: the “aptazyme ON/OFF ratio” value is 2.9. Turning to U7G U8G U10A U11C C13U, the “aptazyme ON/OFF ratio” value is 1.08. The result for U7A U8C G9U U10A U11A C13U reads 1.16; that for U8G G9A U11G C12U, 1.34. Then U7G U8A G9C U11A C12G, with 1.04. For U7A U8G G9U U11G C12U C13A, the “aptazyme ON/OFF ratio” value amounted to 1.18.
